In PMC7064775, “Cyclic di-GMP Signaling in Bacillus subtilis Is Governed by Direct Interactions of Diguanylate Cyclases and Cognate Receptors” (mBio, 2020):

B1: His6-DgcK-ΔN175 (domain or fragment, Bacillus subtilis NCIB 3610, UniProt P54595 176-359, looked up)
chain: DHETNAHLLFKQYKFQAHFDFLTGVYNRRKFEETTKALYQQAADTPHFQFALIYMDIDHFKTINDQYGHHEGDQVLKELGLRLKQTIRNTDPAARIGGEEFAVLLPNCSLDKAARIAERIRSTVSDAPIVLTNGDELSVTISLGAAHYPNNTEQPGSLPILADQMLYKAKETGRNRVCFSEKKE
notes: Diguanylate cyclase DgcK of Bacillus subtilis NCIB 3610, soluble domain, residues 176 to 359 (construct pAT02b); also called His-DgcK-ΔN175; soluble domain of DgcK; source: E. coli BL21(DE3), purified (Ni-NTA, SEC); also coexpressed with YdaK-ΔN111 in E. coli BL21(DE3), in lysate; not shown: His6, N-terminal, kept
B5: GST-His6-DgrA (natural protein, Bacillus subtilis NCIB 3610, UniProt P38491 1-217, looked up)
chain: MIEIGENVLLEYIEENELKKAKSKAVSIENNELLIAYPVDVVTGRTVILHNDMEVTVEFVGKDEVPYRFISRIKGKVKDKLQMICLEMPPREKMKRIQRRQYVRTDAVLDVQIQPGNEEEIRTLSYNISAGGIAVVLADGLSFQSGESLRLIIRLPEEEHTRQIETEAVVRRIFNDPKSEKRKMTLEYSEIAAGDQQALLQYCIRRQLNKRRKARME
notes: PilZ domain c-di-GMP receptor DgrA of Bacillus subtilis NCIB 3610, residues 1 to 217, full length (construct pPB48); also called GST-His-DgrA; PilZ protein DgrA; source: E. coli BL21(DE3), purified (Ni-NTA, SEC); not shown: GST, N-terminal, kept; His6, N-terminal, kept

Assays:
YdaK-ΔN111 [1] = target: T1, YdaK-ΔN111 (Bacillus subtilis, UniProt P96585); test: hydrogen-deuterium exchange mass spectrometry; format: binding; details: 50 µM protein, 1 mM c-di-GMP; pH 7.5, 20 mM MgCl2, 25 °C; I-site (RXXD)
T1 construct: soluble degenerate GGDEF domain, residues 112 to 283 (4 TM helices removed), from E. coli BL21(DE3)

DgcK-ΔN175 = target: T2, DgcK-ΔN175 (Bacillus subtilis, UniProt P54595); test: HPLC of nucleotide co-purified with the denatured protein; format: binding; details: ligand co-purified from E. coli host
T2 construct: soluble GGDEF domain, residues 176 to 359 (6 TM helices removed); N-terminal His6 or GST-His6, from E. coli BL21(DE3)

YdaK-ΔN111 [2] = target: T3, YdaK-ΔN111 (Bacillus subtilis, UniProt P96585, R202A); test: hydrogen-deuterium exchange mass spectrometry; details: 50 µM protein, 1 mM c-di-GMP; pH 7.5, 20 mM MgCl2, 25 °C; I-site mutant, tested for loss of binding
T3 construct: soluble degenerate GGDEF domain, residues 112 to 283 (4 TM helices removed), from E. coli BL21(DE3)

GST-His6-DgrA = target: B5; test: pull-down; 2 nmol GST-His6-DgrA (or GST control) immobilised on glutathione-Sepharose beads, 20 nmol His6-DgcK-ΔN175, with or without 2 mM c-di-GMP; 4°C, buffer A; Coomassie-stained SDS-PAGE; details: both partners purified
His6-DgcK-ΔN175 [3] = target: B1; test: pull-down; 2 nmol His6-DgcK-ΔN175 immobilised on nickel-Sepharose beads, 20 nmol prey, with or without added c-di-GMP; buffer A (20 mM HEPES-Na pH 7.5, 250 mM NaCl, 20 mM MgCl2, 20 mM KCl, 0.05% Tween); elution with 500 mM imidazole; Coomassie-stained SDS-PAGE; details: both partners purified
His6-DgcK-ΔN175 [4] = target: B1; test: pull-down; 2 nmol GST-His6-YdaK-ΔN111 (or GST) immobilised on glutathione-Sepharose 4B, 20 nmol His6-DgcK-ΔN175, with or without added c-di-GMP; 4°C, buffer A (20 mM HEPES-Na pH 7.5, 250 mM NaCl, 20 mM MgCl2, 20 mM KCl, 0.05% Tween); Coomassie-stained SDS-PAGE; details: both partners purified
GST-His6-DgcK-ΔN175 = target: T4, GST-His6-DgcK-ΔN175 (Bacillus subtilis NCIB 3610, UniProt P54595 176-359); test: pull-down; 2 nmol GST-His6-DgcK-ΔN175 immobilised on glutathione-Sepharose 4B, 20 nmol His6-YdaK-ΔN111 or its R202A variant, with or without added c-di-GMP; 4°C, buffer A; Coomassie-stained SDS-PAGE; details: both partners purified
T4 construct: Diguanylate cyclase DgcK of Bacillus subtilis NCIB 3610, soluble domain, residues 176 to 359 (construct pAT02a); also called pAT02a; source: E. coli BL21(DE3), purified (Ni-NTA, SEC); not shown: GST, N-terminal, kept; His6, N-terminal, kept
T4 sequence (looked up): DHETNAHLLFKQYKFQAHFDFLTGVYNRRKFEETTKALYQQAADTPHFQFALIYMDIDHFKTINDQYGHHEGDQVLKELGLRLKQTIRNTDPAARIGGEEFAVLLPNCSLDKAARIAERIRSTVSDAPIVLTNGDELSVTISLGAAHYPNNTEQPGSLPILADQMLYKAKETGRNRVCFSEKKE

DgcP-StrepII = target: T5, DgcP-StrepII (Bacillus subtilis NCIB 3610, UniProt O34325 1-579); test: pull-down; 2 nmol DgcP-StrepII immobilised on Strep-Tactin-Sepharose, 20 nmol GST-His6-DgrA, with or without 2 mM c-di-GMP; buffer A; elution with 50 mM D-biotin; Coomassie-stained SDS-PAGE; details: both partners purified
T5 construct: soluble diguanylate cyclase DgcP of Bacillus subtilis NCIB 3610, residues 1 to 579, full length (construct pPB25); also called pPB25; source: E. coli BL21(DE3), purified (StrepTrap HP, SEC); not shown: StrepII, C-terminal, kept
T5 sequence (looked up): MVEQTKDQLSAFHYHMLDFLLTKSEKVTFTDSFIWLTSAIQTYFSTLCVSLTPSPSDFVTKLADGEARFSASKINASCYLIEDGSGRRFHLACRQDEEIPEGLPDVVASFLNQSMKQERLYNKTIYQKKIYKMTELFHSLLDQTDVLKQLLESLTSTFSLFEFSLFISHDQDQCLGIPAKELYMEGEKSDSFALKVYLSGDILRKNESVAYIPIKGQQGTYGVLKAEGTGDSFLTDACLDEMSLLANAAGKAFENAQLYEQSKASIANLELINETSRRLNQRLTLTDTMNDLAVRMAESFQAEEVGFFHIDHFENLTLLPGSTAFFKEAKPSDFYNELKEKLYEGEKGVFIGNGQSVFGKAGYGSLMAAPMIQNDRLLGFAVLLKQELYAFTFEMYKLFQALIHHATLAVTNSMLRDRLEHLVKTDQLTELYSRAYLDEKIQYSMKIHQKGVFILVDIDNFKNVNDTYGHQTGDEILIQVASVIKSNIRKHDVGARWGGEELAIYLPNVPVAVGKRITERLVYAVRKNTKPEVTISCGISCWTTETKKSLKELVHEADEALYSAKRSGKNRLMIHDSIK

T3 sequence (P96585 112-283 R202A): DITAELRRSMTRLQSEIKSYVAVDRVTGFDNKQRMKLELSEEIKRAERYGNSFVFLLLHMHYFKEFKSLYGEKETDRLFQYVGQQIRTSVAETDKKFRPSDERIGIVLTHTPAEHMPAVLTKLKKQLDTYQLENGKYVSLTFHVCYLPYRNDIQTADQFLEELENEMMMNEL

Nc1nc2c(ncn2[C@@H]2O[C@@H]3COP(=O)(O)O[C@H]4[C@@H](O)[C@H](n5cnc6c(=O)[nH]c(N)nc65)O[C@@H]4COP(=O)(O)O[C@H]3[C@H]2O)c(=O)[nH]1 [c-di-GMP]
decrease in H/D exchange (YdaK-ΔN111 [1]): presence of c-di-GMP resulted in a strong decrease in H/D exchange in many parts of YdaK
loading (DgcK-ΔN175): ~ 25%
no alterations in HDX (YdaK-ΔN111 [2]): indicating the inability of c-di-GMP to bind to this variant

B1
binding result (GST-His6-DgrA): binds

B2: GST-YdaK-ΔN111 (domain or fragment, Bacillus subtilis NCIB 3610, UniProt P96585 112-283, looked up)
chain: DITAELRRSMTRLQSEIKSYVAVDRVTGFDNKQRMKLELSEEIKRAERYGNSFVFLLLHMHYFKEFKSLYGEKETDRLFQYVGQQIRTSVRETDKKFRPSDERIGIVLTHTPAEHMPAVLTKLKKQLDTYQLENGKYVSLTFHVCYLPYRNDIQTADQFLEELENEMMMNEL
notes: c-di-GMP receptor YdaK of Bacillus subtilis NCIB 3610, soluble domain (degenerated GGDEF domain), residues 112 to 283 (construct pAT03c); also called pAT03c; source: E. coli BL21(DE3), purified (GSTrap FF, SEC); not shown: GST, N-terminal, kept
binding result (His6-DgcK-ΔN175 [3]): binds

B3: GST-His6-YdaK-ΔN111 (domain or fragment, Bacillus subtilis NCIB 3610, UniProt P96585 112-283, looked up)
chain: DITAELRRSMTRLQSEIKSYVAVDRVTGFDNKQRMKLELSEEIKRAERYGNSFVFLLLHMHYFKEFKSLYGEKETDRLFQYVGQQIRTSVRETDKKFRPSDERIGIVLTHTPAEHMPAVLTKLKKQLDTYQLENGKYVSLTFHVCYLPYRNDIQTADQFLEELENEMMMNEL
notes: c-di-GMP receptor YdaK of Bacillus subtilis NCIB 3610, soluble domain, residues 112 to 283 (construct pAT03a); also called pAT03a; not shown: GST, N-terminal, kept
binding result (His6-DgcK-ΔN175 [4]): binds

B4: His6-YdaK-ΔN111 (domain or fragment, Bacillus subtilis NCIB 3610, UniProt P96585 112-283, looked up)
chain: DITAELRRSMTRLQSEIKSYVAVDRVTGFDNKQRMKLELSEEIKRAERYGNSFVFLLLHMHYFKEFKSLYGEKETDRLFQYVGQQIRTSVRETDKKFRPSDERIGIVLTHTPAEHMPAVLTKLKKQLDTYQLENGKYVSLTFHVCYLPYRNDIQTADQFLEELENEMMMNEL
notes: c-di-GMP receptor YdaK of Bacillus subtilis NCIB 3610, soluble domain, residues 112 to 283 (construct pAT03b); also called native YdaK; pAT03b; source: E. coli BL21(DE3), purified (Ni-NTA, SEC); not shown: His6, N-terminal, kept
binding result (GST-His6-DgcK-ΔN175): binds

B5
binding result (DgcP-StrepII): binds
